Measurements reported in patent US20050026839A1 (GENERAL HOSPITAL, published 2005).
Square brackets hold non-standard residues; d marks the D form. Ends that are not written are not given here. hArg = N=C(N)NCCCC[C@H](N)C(=O)O; Nle = CCCC[C@H](N)C(=O)O; Aib = CC(C)(N)C(=O)O

T1: wild-type human PTH/PTHrP receptor (hP1R-WT) (human, UniProt Q03431 27-593)
T1 sequence (looked up): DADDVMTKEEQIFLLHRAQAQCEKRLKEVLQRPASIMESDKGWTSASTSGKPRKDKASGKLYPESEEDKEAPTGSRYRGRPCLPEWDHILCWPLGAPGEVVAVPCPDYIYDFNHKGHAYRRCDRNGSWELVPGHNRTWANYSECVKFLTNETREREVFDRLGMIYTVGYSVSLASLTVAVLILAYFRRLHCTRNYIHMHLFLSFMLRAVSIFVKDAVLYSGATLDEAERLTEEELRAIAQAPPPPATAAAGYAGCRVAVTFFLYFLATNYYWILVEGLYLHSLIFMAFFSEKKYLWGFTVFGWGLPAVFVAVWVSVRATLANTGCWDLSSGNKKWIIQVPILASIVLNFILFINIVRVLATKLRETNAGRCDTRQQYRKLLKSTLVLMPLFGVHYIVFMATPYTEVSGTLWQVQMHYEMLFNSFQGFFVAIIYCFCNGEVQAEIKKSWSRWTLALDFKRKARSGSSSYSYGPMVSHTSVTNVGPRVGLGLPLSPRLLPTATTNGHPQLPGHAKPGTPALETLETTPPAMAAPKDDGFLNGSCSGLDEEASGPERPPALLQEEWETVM

B1: [Aib^10,M]PTH(1-14) (peptide)
peptide: AVAEIQLMH[Aib][hArg]AKW-NH2
modifications: N-terminus assumed
SMILES: CC[C@H](C)[C@H](NC(=O)[C@H](CCC(=O)O)NC(=O)[C@H](C)NC(=O)[C@@H](NC(=O)[C@H](C)N)C(C)C)C(=O)N[C@@H](CCC(N)=O)C(=O)N[C@@H](CC(C)C)C(=O)N[C@@H](CCSC)C(=O)N[C@@H](Cc1c[nH]cn1)C(=O)NC(C)(C)C(=O)N[C@@H](CCCCNC(=N)N)C(=O)N[C@@H](C)C(=O)N[C@@H](CCCCN)C(=O)N[C@@H](Cc1c[nH]c2ccccc12)C(N)=O
notes: Aib scan of [M]PTH(1-14); Aib replaces the Gln^10 of [M]; also called 631 Aib-10
B2: [Aib^1,3]PTH(1-9) (peptide)
peptide: [Aib]V[Aib]EIQLMH-NH2
modifications: N-terminus assumed
SMILES: CC[C@H](C)[C@H](NC(=O)[C@H](CCC(=O)O)NC(=O)C(C)(C)NC(=O)[C@@H](NC(=O)C(C)(C)N)C(C)C)C(=O)N[C@@H](CCC(N)=O)C(=O)N[C@@H](CC(C)C)C(=O)N[C@@H](CCSC)C(=O)N[C@@H](Cc1c[nH]cn1)C(N)=O
B3: [Aib^4,M]PTH(1-14) (peptide)
peptide: AVA[Aib]IQLMHQ[hArg]AKW-NH2
modifications: N-terminus assumed
SMILES: CC[C@H](C)[C@H](NC(=O)C(C)(C)NC(=O)[C@H](C)NC(=O)[C@@H](NC(=O)[C@H](C)N)C(C)C)C(=O)N[C@@H](CCC(N)=O)C(=O)N[C@@H](CC(C)C)C(=O)N[C@@H](CCSC)C(=O)N[C@@H](Cc1c[nH]cn1)C(=O)N[C@@H](CCC(N)=O)C(=O)N[C@@H](CCCCNC(=N)N)C(=O)N[C@@H](C)C(=O)N[C@@H](CCCCN)C(=O)N[C@@H](Cc1c[nH]c2ccccc12)C(N)=O
notes: Aib scan of [M]PTH(1-14); also called 625 Aib-4
B4: [Aib^9,M]PTH(1-14) (peptide)
peptide: AVAEIQLM[Aib]Q[hArg]AKW-NH2
modifications: N-terminus assumed
SMILES: CC[C@H](C)[C@H](NC(=O)[C@H](CCC(=O)O)NC(=O)[C@H](C)NC(=O)[C@@H](NC(=O)[C@H](C)N)C(C)C)C(=O)N[C@@H](CCC(N)=O)C(=O)N[C@@H](CC(C)C)C(=O)N[C@@H](CCSC)C(=O)NC(C)(C)C(=O)N[C@@H](CCC(N)=O)C(=O)N[C@@H](CCCCNC(=N)N)C(=O)N[C@@H](C)C(=O)N[C@@H](CCCCN)C(=O)N[C@@H](Cc1c[nH]c2ccccc12)C(N)=O
notes: Aib scan of [M]PTH(1-14); also called 630 Aib-9
B5: [Aib^7,M]PTH(1-14) (peptide)
peptide: AVAEIQ[Aib]MHQ[hArg]AKW-NH2
modifications: N-terminus assumed
SMILES: CC[C@H](C)[C@H](NC(=O)[C@H](CCC(=O)O)NC(=O)[C@H](C)NC(=O)[C@@H](NC(=O)[C@H](C)N)C(C)C)C(=O)N[C@@H](CCC(N)=O)C(=O)NC(C)(C)C(=O)N[C@@H](CCSC)C(=O)N[C@@H](Cc1c[nH]cn1)C(=O)N[C@@H](CCC(N)=O)C(=O)N[C@@H](CCCCNC(=N)N)C(=O)N[C@@H](C)C(=O)N[C@@H](CCCCN)C(=O)N[C@@H](Cc1c[nH]c2ccccc12)C(N)=O
notes: Aib scan of [M]PTH(1-14); also called 628 Aib-7
B6: [Ala^3,12,Nle^8,Gln^10,Har^11,Trp^14,Arg^19,Tyr^21]PTH(1-21)amide (peptide)
peptide: AVAEIQL[Nle]HQ[hArg]AKWLASVRRY-NH2
modifications: N-terminus assumed
SMILES: CCCC[C@H](NC(=O)[C@H](CC(C)C)NC(=O)[C@H](CCC(N)=O)NC(=O)[C@@H](NC(=O)[C@H](CCC(=O)O)NC(=O)[C@H](C)NC(=O)[C@@H](NC(=O)[C@H](C)N)C(C)C)[C@@H](C)CC)C(=O)N[C@@H](Cc1c[nH]cn1)C(=O)N[C@@H](CCC(N)=O)C(=O)N[C@@H](CCCCNC(=N)N)C(=O)N[C@@H](C)C(=O)N[C@@H](CCCCN)C(=O)N[C@@H](Cc1c[nH]c2ccccc12)C(=O)N[C@@H](CC(C)C)C(=O)N[C@@H](C)C(=O)N[C@@H](CO)C(=O)N[C@H](C(=O)N[C@@H](CCCNC(=N)N)C(=O)N[C@@H](CCCNC(=N)N)C(=O)N[C@@H](Cc1ccc(O)cc1)C(N)=O)C(C)C
notes: unlabeled peptide; also called [M]PTH(1-21); 608 [M]PTH(1-21)
B7: [Aib^6,M]PTH(1-14) (peptide)
peptide: AVAEI[Aib]LMHQ[hArg]AKW-NH2
modifications: N-terminus assumed
SMILES: CC[C@H](C)[C@H](NC(=O)[C@H](CCC(=O)O)NC(=O)[C@H](C)NC(=O)[C@@H](NC(=O)[C@H](C)N)C(C)C)C(=O)NC(C)(C)C(=O)N[C@@H](CC(C)C)C(=O)N[C@@H](CCSC)C(=O)N[C@@H](Cc1c[nH]cn1)C(=O)N[C@@H](CCC(N)=O)C(=O)N[C@@H](CCCCNC(=N)N)C(=O)N[C@@H](C)C(=O)N[C@@H](CCCCN)C(=O)N[C@@H](Cc1c[nH]c2ccccc12)C(N)=O
notes: Aib scan of [M]PTH(1-14); also called 627 Aib-6
B8: [Aib^8,M]PTH(1-14) (peptide)
peptide: AVAEIQL[Aib]HQ[hArg]AKW-NH2
modifications: N-terminus assumed
SMILES: CC[C@H](C)[C@H](NC(=O)[C@H](CCC(=O)O)NC(=O)[C@H](C)NC(=O)[C@@H](NC(=O)[C@H](C)N)C(C)C)C(=O)N[C@@H](CCC(N)=O)C(=O)N[C@@H](CC(C)C)C(=O)NC(C)(C)C(=O)N[C@@H](Cc1c[nH]cn1)C(=O)N[C@@H](CCC(N)=O)C(=O)N[C@@H](CCCCNC(=N)N)C(=O)N[C@@H](C)C(=O)N[C@@H](CCCCN)C(=O)N[C@@H](Cc1c[nH]c2ccccc12)C(N)=O
notes: Aib scan of [M]PTH(1-14); also called 629 Aib-8
B9: [Aib^2,M]PTH(1-14) (peptide)
peptide: A[Aib]AEIQLMHQ[hArg]AKW-NH2
modifications: N-terminus assumed
SMILES: CC[C@H](C)[C@H](NC(=O)[C@H](CCC(=O)O)NC(=O)[C@H](C)NC(=O)C(C)(C)NC(=O)[C@H](C)N)C(=O)N[C@@H](CCC(N)=O)C(=O)N[C@@H](CC(C)C)C(=O)N[C@@H](CCSC)C(=O)N[C@@H](Cc1c[nH]cn1)C(=O)N[C@@H](CCC(N)=O)C(=O)N[C@@H](CCCCNC(=N)N)C(=O)N[C@@H](C)C(=O)N[C@@H](CCCCN)C(=O)N[C@@H](Cc1c[nH]c2ccccc12)C(N)=O
notes: Aib scan of [M]PTH(1-14); also called 623 Aib-2

Legend:
[1] = target: T1, wild-type human PTH/PTHrP receptor …; experiment: cell-based or functional assay
[2] = target: T1, wild-type human PTH/PTHrP receptor …; experiment: competition binding, 125I-[M]PTH(1-21) tracer, HKRK-B28 cells, 4 h at 4 C
Description: (§1) Competition Binding. Binding reactions were performed with HKRK-B28 cells or in COS-7 cells in 24-well plates. The cells were rinsed with 0.5 mL of binding buffer, and then treated successively with 100 μL binding buffer, 100 μL of binding buffer containing various amounts of unlabeled competitor ligand, and 100 μL of binding buffer containing ca. 100,000 cpm of ¹²⁵I-[M]PTH(1-21) or ¹²⁵I-[Aib^{1,3},M]PTH(1-21)} (ca. 26 fmol; final volume=300 μL). Incubations were 4 to 6 h at 4° C., at which time near equilibrium conditions were attained. Cells were then placed on ice, the binding medium was removed, and the monolayer was rinsed three times with 0.5 mL of cold binding buffer. The cells were subsequently lysed with 0.5 mL […] NaOH and counted for radioactivity. For each tracer and in each experiment, the non-specific binding was determined as the radioactivity that bound in the presence of the same unlabeled peptide at a concentration of 1 μM, and was ˜1% of total radioactivity added for each tracer. The maximum specific binding (B₀) was the total radioactivity bound in the absence of competing ligand, corrected for nonspecific binding, and for each tracer, ranged from 8% to 20% of the total radioactivity added. Nonlinear regression was used to calculate binding IC₅₀ values (see below). Scatchard transformations of homologous competition binding data derived from studies with 26 fmol of ¹²⁵I-[Aib^{1,3},M]PTH(1-21) were employed for estimations of apparent equilibrium dissociation constant (kDapps) and total number of ligand binding sites (Bₘₐₓ), assuming a single class of binding sites and equal affinities of the iodinated and non iodinated ligand.
Peptides PTH(1-34) ([Nle^{8,21}, Tyr³⁴]PTH(1-34)amide), [M]PTH(1-14) (M = Ala^{3,12}, Gln¹⁰, Har¹¹, Trp¹⁴), and [M]PTH(1-14 analogs, or C-terminally truncated derivatives thereof, containing α-aminoisobutyric acid (Aib) substitutions at the indicated positions were functionally evaluated in HKRK-B28 cells. “M” in [Aib^{1,3}, M]PTH(1-21) = Nle⁸, Gln¹⁰, Har¹¹, Ala¹², Trp¹⁴, Arg¹⁹ and Tyr²¹. The basal cAMP values (not subtracted) were 4.0 ± 0.1 pmole/well (n = 10). Peptides were based on the rat PTH sequence and were carboxy-amidated. Competition binding analyses were performed with ¹²⁵I-[M]PTH(1-21 )amide (Ala^{1,3}) as tracer for 4 h at 4° C. Data are means (±S.E.M.) Of the number of experiments indiated (n).

[3] = target: T1, wild-type human PTH/PTHrP receptor …; experiment: competition binding, 125I-[M]PTH(1-21) tracer, HKRK-B28 cells
Description: as §1, with “Cells” for “Competition Binding. Binding reactions were performed with HKRK-B28 cells or in COS-7 cells in 24-well plates. The cells were rinsed with 0.5 mL of binding buffer, and then treated successively with 100 μL binding buffer, 100 μL of binding buffer containing various amounts of unlabeled competitor ligand, and 100 μL of binding buffer containing ca. 100,000 cpm of ¹²⁵I-[M]PTH(1-21) or ¹²⁵I-[Aib^{1,3},M]PTH(1-21)} (ca. 26 fmol; final volume=300 μL). Incubations were 4 to 6 h at 4° C., at which time near equilibrium conditions were attained. Cells”
Relative to the apparent binding affinity of [M]PTH(1-14), most of the Aib substitutions reduced affinity, in accordance with the corresponding effects on cAMP-signaling potency (Table 1).

Binder	cAMP EC50 [1] [µM]	cAMP EMax(obs.) [1] [pmole/well]	IC50 [2] [µM]	fold improvement in affinity relative to [M]PTH(1-14) [3] [fold]	fold reduction in affinity relative to [M]PTH(1-14) [3] [fold]
B1	3	214	9.1	1.4	–
B2	> 10	10	–	–	–
B3	17	221	148	–	> 10
B4	710	51	–	–	> 10
B5	2.6	275	490	–	> 10
B6	–	–	0.053	–	–
B7	230	116	31	–	~3
B8	1500	34	–	–	> 10
B9	47	168	50	–	–
